Measurements published in PMC5863767, “Mps1 Phosphorylates Its N-Terminal Extension to Relieve Autoinhibition and Activate the Spindle Assembly Checkpoint” (Current Biology, 2018).
Residue numbers refer to the chain shown, from its start. Numbers in names are those of the source.

B1: GST-Mps1-WT (enzyme, human, UniProt P33981 1-857, looked up)
chain: MESEDLSGRELTIDSIMNKVRDIKNKFKNEDLTDELSLNKISADTTDNSGTVNQIMMMANNPEDWLSLLLKLEKNSVPLSDALLNKLIGRYSQAIEALPPDKYGQNESFARIQVRFAELKAIQEPDDARDYFQMARANCKKFAFVHISFAQFELSQGNVKKSKQLLQKAVERGAVPLEMLEIALRNLNLQKKQLLSEEEKKNLSASTVLTAQESFSGSLGHLQNRNNSCDSRGQTTKARFLYGENMPPQDAEIGYRNSLRQTNKTKQSCPFGRVPVNLLNSPDCDVKTDDSVVPCFMKRQTSRSECRDLVVPGSKPSGNDSCELRNLKSVQNSHFKEPLVSDEKSSELIITDSITLKNKTESSLLAKLEETKEYQEPEVPESNQKQWQSKRKSECINQNPAASSNHWQIPELARKVNTEQKHTTFEQPVFSVSKQSPPISTSKWFDPKSICKTPSSNTLDDYMSCFRTPVVKNDFPPACQLSTPYGQPACFQQQQHQILATPLQNLQVLASSSANECISVKGRIYSILKQIGSGGSSKVFQVLNEKKQIYAIKYVNLEEADNQTLDSYRNEIAYLNKLQQHSDKIIRLYDYEITDQYIYMVMECGNIDLNSWLKKKKSIDPWERKSYWKNMLEAVHTIHQHGIVHSDLKPANFLIVDGMLKLIDFGIANQMQPDTTSVVKDSQVGTVNYMPPEAIKDMSSSRENGKSKSKISPKSDVWSLGCILYYMTYGKTPFQQIINQISKLHAIIDPNHEIEFPDIPEKDLQDVLKCCLKRDPKQRISIPELLAHPYVQIQTHPVNQMAKGTTEEMKYVLGQLVGLNSPNSILKAAKTLYEHYSGGESHNSSSSKTFEKKRGKK
notes: Mps1 kinase, human, wild type, full-length polypeptide; also called active Mps1; source: baculovirus-infected Sf9 cells, purified (glutathione-agarose, eluted with glutathione)
B2: GST-Mps1-KD (enzyme, human, UniProt P33981 1-857, looked up)
chain: B1 chain with D664A
notes: Mps1 kinase, human, kinase-dead, full-length polypeptide; also called kinase-dead (D664A); source: baculovirus-infected Sf9 cells, purified (glutathione-agarose, eluted with glutathione)

Biological target: the molecule itself
Experiment: cross-linking; BS3 cross-linking of purified GST-Mps1 (10:1 protein:BS3, 2 h on ice; 50 mM HEPES pH 7.5, 250 mM KCl, 0.05% NP-40, 1 mM DTT), NATIVE-PAGE, bands of cross-linked dimers excised, cross-linked peptides identified by mass spectrometry

Protein	binding result
B1	binds
B2	binds
